Measured values reported in US20220125947A1 (published 2022).
Changes are numbered by the printed parent chain.

B1: VG9B208 (antibody, human IgG1, lambda, V domains shown)
VH: QVQLQESGPGLVKPSETLSLTCTVSGGSISGYYWSWIRQPPGKGLELIGYIFYSGSINYNPSLKNRVTISLDTSKNQFSLKLTSVTAADTAVYYCARVGKWELRSSFDIWGQGTMVTVSS
VL: QSVLTQPPSVSAAPGQKVTISCSGSTSNIGNNDVSWYQQLPGTAPKLLIYDNNKRPSGIPDRFSGSKSGTSATLGITGLQTGDEADYYCGTWDSSLSVWVFGGGTKLTVLG
notes: IgG1, lambda
B2: VG9B203 (antibody, human IgG1, lambda, V domains shown)
VH: QVQLVQSGPGLVKPSETLSLTCTVSGDSIGHYYWNWIRQPAGKGLEWIGRIYTSGSTNYNPSLKSRVTMSVDTSKNQFSLKLSSVTAADTAVYYCARSGGNFYWYFDLWGRGTLVTVSS
VL: B1 VL with T26S, D33Y, L40V, F63I, V98A, W99G, L107V
notes: IgG1, lambda
B3: VG9B114 (antibody, human IgG1, kappa, V domains shown)
VH: EVQLVESGGDLVQPGGSLRLSCAASGFTFSRYDMHWVRQATGKGLEWVSAIGSAGDTYYPGSVKGRFTISRENAKNSLYLQMNSLRAGDTAVYYCARGKWELRDAFDIWGQGTMVTVSS
VL: DIVMTQSPSFLSASVGDRVTITCRASQGIHSYLAWYQQKPGKAPKLLIYVASTLQSGVPSRFSGSRSGTEFTLTISSLQPEDFATYYCQQLNSYPYTFGQGTKLEIKR
notes: IgG1, kappa
B4: VG9B81 (antibody, human IgG1, kappa, V domains shown)
VH: QVQLQESGPGLVKPSETLSLTCSVSGGSINTYYWSWFRQPAGKGLELIGRIYTSDNTNYNPSLKSRVTMSVDTSKNQFSLKLSSVTAADTAVYYCARYNWNYWYFDLWGRGTLVTVSS
VL: B3 VL with V3Q, G16R, T20N, H30S, V50T, R66G, Q90H, L104V
notes: IgG1, kappa
B5: VG9B87 (antibody, human IgG1, kappa, V domains shown)
VH: QVQLVESGAEVKKPGASVKVSCKASGYTFTSEYIHWVRQAPGQGLEWMGIINPSGGSTSYAQRFQGRVTMTRDTSTSTVYMEVNSLRSEDTAVYYCARERGYSYGSFDYWGQGTLVTVSS
VL: EIVLTQSPSFLSASAGDRVTITCRASQGISSYLAWYQQKPEKAPKLLIYAASTLQSGVPSRFSGSGSGTEFTLTISSLQPEDFATYYCQQFNSYSLTFGGGTKLEIKR
notes: IgG1, kappa
B6: VG9B372 (antibody, human IgG1, kappa, V domains shown)
VH: QVQLQESGPGLVKPSQTLSLTCTVSGGSISNGGFYWSWIRQHPGKGLEWLGYINYSGSTYYNPSLESRGTISLDTSKNQFSLKLRSVTAADTAVYYCARDRNYEWNFDLWGRGTLVTVSS
VL: EIVMTQSPATLSLSPGEGATLSCRASQSVSSYLAWYQQKPGQAPRLLVYDASNRATGIPARFSGSGSGTAFTLTITSLEPEDFVVYYCQQRSNWPLTFGGGTKLEIKR
notes: IgG1, kappa
B7: VG9B65 (antibody, human IgG1, kappa, V domains shown)
VH: QVQLVQSGAEVKKPGSSVKVSCKASGGTFNIYAINWVRQAPGQGLEWMGGIIPFFGTANYAQKFQDRVTITADKSTNTAYMELSSLRSEDTAVFYCARGGDSGYDWGFDYWGQGTLVTVSS
VL: DIVMTQTPLSSPVTLGQPASISCRSSQSLVHSDGNTYLSWLQQRPGQPPRLLIYQISNRFSGVPDRFSGSGAGTDFTLNISRVEADDVGVYYCMQATQFPLTFGGGTKVEIKR
notes: IgG1, kappa
B8: VG9B186 (antibody, human IgG1, lambda, V domains shown)
VH: QVTLRESGPVLVKPTETLTLTCTVSGFSLTNIRMSVSWIRQPPGEALEWLAHIFSNDEKSYNSSLKSRLTISRDTSKSQVVLTLTNVDPVDTATYYCARMRLPYGMDVWGQGTMVTVSS
VL: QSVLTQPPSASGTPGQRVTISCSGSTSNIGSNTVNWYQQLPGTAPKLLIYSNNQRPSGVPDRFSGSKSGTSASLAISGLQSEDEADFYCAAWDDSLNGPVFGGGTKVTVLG
notes: IgG1, lambda
B9: VG9B147 (antibody, human IgG1, lambda, V domains shown)
VH: QVQLQESGPGLVNPSETLSLTCTVSGGSISGYFWNWIRQPPGKGLEWIGYIFYSGSTNYNPSLKSRVTISVDTSKNQFSLKLSSVTAADTAIYYCAREGKWELRSTFDIWGQGTMVTVSS
VL: SSELTQDPAVSVALGQTVRITCQGDSLRSYYATWYQQKPGQAPILVIYGENNRPSGIPDRFSGSRSGNTASLTITGAQAEDEADYYCNSRDTGDHHLVFGGGTKLTVLG
notes: IgG1, lambda
B10: VG9B177 (antibody, human IgG1, lambda, V domains shown)
VH: QVQLQESGPGLVKPSETLSLTCTVSGGSINNYFWSWIRQPPGKGLEWIGYIFYSGSTNYNPSLKSRVTISIDTSKNQFSLKVNSVTAADTAVYYCARVGKWELRTAFDIWGQGTMVTVSS
VL: QSALTQPASVSGSPGQSITISCTGTSSDVADYNYVSWYQQHPGKAPKLMIYEVSNRPSGVSNRFSGSKSGNTASLTISGLQAEDEADYYCCSYTSSFTVVFGGGTKVTVLG
notes: IgG1, lambda
B11: VG9B383 (antibody, human IgG1, lambda, V domains shown)
VH: QVQLQESGPGLVKPSETLSLTCTVSSGSISSYYWNWIRQPAGKGLEWVGRIYTIGNTNYNPSLKSRVTMSIDTSKNQFSLNLSSVTAADTAVYFCAREGYYDSSGSFFPGAFGIWGQGTMVTVSS
VL: SSELTQPASVSGSPGQSITISCTGTSNDVGSYNLVSWYQQHPGKAPKLMIYAGSKRPSGISNRFSGSKSGNTASLTISGLQAEDEADYYCCSFAGATNVVFGGGTKLTVLG
notes: also called antibody #67
B12: VG9B465 (antibody, human IgG1, lambda, V domains shown)
VH: QVQLQQSGPGLVKPSETLSLTCTVSGGSITSYYWNWIRQPAGKGLEWIGRIYTIGNTNYNPSLKSRVTMSIDTSKHQFSLKLSSVTGADTAVYYCAREGYYESDGSFFPGAFNIWGQGTMVTVSS
VL: B11 VL with F93Y, A96T, L107V
notes: also called antibody #74
B13: VG9B86 (antibody, human IgG1, kappa, V domains shown)
VH: QVQLQESGPGLVKPSETLSLTCTVSGDSISSSYWSWIRQPAGKGLECIGRFYSSGSTSYNPSLKSRVTMAIDTSKNQFSLKLTSVTAADTAVYYCARYSGSYWYFDLWGRGTTVTVSS
VL: EIVLTQSPATLSLSPGERATLSCRASQSVSSYLAWYQQRPGQAPRLLIYDTSNRATGIPARFSGSGSGTDFTLTISSLAPEDFAVYYCQQRSDWLLTFGGGTKVEIKR
notes: also called antibody #71
B14: VG9B156 (antibody, human IgG1, lambda, V domains shown)
VH: QVQLQESGPGLMKPSETLSLTCTVSNGSISGYFWNWIRQPPGKGLEWIGYIFYSGSTNYNPSLKSRVTISVDTSKNLVSLKLNSVTAADTAVYFCAKLGKWELRTAFDIWGQGTMVTVSS
VL: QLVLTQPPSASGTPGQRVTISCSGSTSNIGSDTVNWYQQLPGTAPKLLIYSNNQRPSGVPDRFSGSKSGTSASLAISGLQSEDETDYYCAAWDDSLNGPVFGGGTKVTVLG
notes: also called antibody #69
B15: VG9B205 (antibody, human IgG1, lambda, V domains shown)
VH: B14 VH with Q5V, E6Q
VL: not shown
notes: also called antibody #70
B16: VG9B159 (antibody, human IgG1, lambda, V domains shown)
VH: EVQLVQSGPGLVKPSETLSLTCTVSGGSISSYYWSWIRQPAGKGLEWIGRFYTGGRNNYNPSFKSRVTMSVDTSQNQFSLKLSSVTAADTAVYYCARDMEYYYDRSGYSYWYFDLWGRGTTVTVSS
VL: SYELMQPPSVSVAPGQTARITCGGNNIGSKSVHWYQQKPGQAPVLVVYDDSDRPSGIPERFSGSNSGNTATLTISRVEAGDEADYYCQVWDSSSDHVVFGGGTKLTVLG
notes: also called antibody #73
B17: VG9B382 (antibody, human IgG1, lambda, V domains shown)
VH: QVQLQESGPGLVKPSETLSLTCTVSGDSISGYYWNYIRQPAGKGLDWIGRIFTTGNTNYNPSLKSRVTMSVDTSKNQFSLKLTSVTAADTAVYYCARERWDSSSSALYFDYWGQGTLVTVSS
VL: QSVLTQPPSVSGAPGQRVTISCTGSSSNIGADYDIKWYQQLPGTAPKLLIYGNSNRPSGVPDRFSGSKSGTSVSLAITGLQAEDEADYYCQSYDSSMSGYVVFGGGTKLTVLG
notes: also called antibody #68
B18: VG9B182 (antibody, human IgG1, lambda, V domains shown)
VH: QVQLVESGPGLVKPSETLSLTCTVSGDSINNHFWSWIRQPPGKGLEWIGFVFYNGNTNYNPSLKSRVTISIDTSKSQFSLKLTSVTAADTAVYYCARVGRWVLRTAFDIWGQGTMVTVSS
VL: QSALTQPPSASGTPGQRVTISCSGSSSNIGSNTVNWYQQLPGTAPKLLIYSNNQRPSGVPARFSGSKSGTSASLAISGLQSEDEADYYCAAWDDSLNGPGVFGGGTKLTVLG
notes: also called antibody #76
B19: VG9B194 (antibody, human IgG1, lambda, V domains shown)
VH: EVQLLESGAEVKKPGASVKVSCKASGYTFTGDYMHWVRQAPGQGLEWMGWINPNSGYTNNAEKFQGRVTMTRDTSISTAYMELSRLSSDDTAVYYCTRELDALDVWGQGTMVTVSS
VL: QSVLTQPPSASGSPGQSVTISCTGTSSDVGGYNYVSWYQQHPGKAPKLMIYEVSKRPSGVPDRFSGSKSGNTASLTVSGLQAEDEADYYCNSYAGSNNFEVFGGGTKVTVLG
notes: also called antibody #75
B20: VG9B154 (antibody, human IgG1, lambda, V domains shown)
VH: B9 VH with N13K, G31Y, F52Y, V71L, I92V, S105T
VL: not shown
notes: also called antibody #72
B21: VG9B173 (antibody, human IgG1, lambda, V domains shown)
VH: B10 VH with F52Y, I71V, D72V, K75M, V82L, N83S, V98E, T105S
VL: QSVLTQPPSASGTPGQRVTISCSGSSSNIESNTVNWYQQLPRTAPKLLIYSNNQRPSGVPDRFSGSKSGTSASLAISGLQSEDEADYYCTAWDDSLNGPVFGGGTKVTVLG
notes: also called antibody #77

What follows are binders tested against T1, gamma-delta T cell receptor on human γδ T cells (human) (assay: flow cytometry, dose-response binding at 37 C, human γδ T cells).
T1 construct: also called AG000003021 (γδ T cells)
Procedure: (§1) Binding of antibodies to human γδ T cells or SKW cell lines expressing Vγ9/Vδ2, Vγ9/Vδ2 or Vγ5/Vδ2 was carried out by flow cytometry. Briefly, the cells were centrifuged at 300×g for 5 minutes and the pellet was resuspended in 34 ml fresh media (in RPMI+10% FBS). 50 μL of the cells were then plated (44K cells/well) into assay plates. Samples were incubated for one hour at 37° C. in tissue culture (TC) incubator followed by wash steps by adding 100 μl FACS staining buffer. Secondary detention antibodies (A647 conjugated anti-human IgG Fc specific antibody (2 μg/mL) along with AF488 anti mouse CD3, clone OKT3 at 1 ug/mL) were added at 50 μL/well to appropriate wells according to the plate map. After incubating for 60 minutes at 37° C. in the TC incubator, cells were again washed as described above. This is followed by resuspension in 20 μL/well running buffer containing 1:1000 dilution of Sytox blue dead cell stain and the plates were run on iQue Screener.
(§2) Gating and data analysis: Human anti-human Vγ9 antibody (VG9B2 mAb at 10 nM) was used to mark the gating of positive population. All cells were first gated for singlets on SCS-A vs. SCS-H dot plot, live/dead followed by CD3 positive population, and this subset of CD3 positive population was gated for Vγ9 positive binding using positive control mAb. Cells were also assessed for cell binding of control mAbs by RL1 (A647) Geomeans from the live cell population. Advanced metrics were used and normalization metrics were chosen to calculate fold over background wells containing secondary antibody alone (designated as ‘background’ within ForeCyt settings).
In the case of B1, the “Max. Activity” value is reported as 2310 fold over background.
In the case of B2, the “Max. Activity” value is reported as 1750 fold over background.
B3 was tested, and the “Max. Activity” value was 1980 fold over background.
In the case of B4, the “Max. Activity” value is reported as 1770 fold over background.
In the case of B5, the “Max. Activity” value is reported as 2330 fold over background.
With B6 the “Max. Activity” value was 2290 fold over background.
B7 was tested, and the “Max. Activity” value was 1820 fold over background.
In the case of B8, the “Max. Activity” value is reported as 2290 fold over background.
With B9 the “Max. Activity” value was 1890 fold over background.
B10 was tested, and the “Max. Activity” value was 2250 fold over background.

What follows are binders tested against T2, γδ T cell receptor on human γδ T cells (human) (assay: flow cytometry, dose-response (DRC) binding at 37°C on human γδ T cells).
T2 construct: also called AG000003021 (γδ T cells)
Procedure: as §1, §2
For B11, the “Max. Activity” value was 2780 fold over background.
In the case of B12, the “Max. Activity” value is reported as 2500 fold over background.
In the case of B13, the “Max. Activity” value is reported as 2670 fold over background.
B14 was tested, and the “Max. Activity” value was 2700 fold over background.
For B15, the “Max. Activity” value was 2690 fold over background.
B16 was tested, and the “Max. Activity” value was 2510 fold over background.
For B17, the “Max. Activity” value was 2780 fold over background.
B18 was tested, and the “Max. Activity” value was 2370 fold over background.
With B19 the “Max. Activity” value was 2470 fold over background.
With B20 the “Max. Activity” value was 2590 fold over background.
In the case of B21, the “Max. Activity” value is reported as 2360 fold over background.
